Experiments:
[1] = molecular target: T1, recombinant biotinylated CD137 protein (Fc-fusion protein, R&D Systems 838-4B) (human, UniProt Q07011 24-186, biotinylated, sites not stated); experiment: ELISA, lysate on biotinylated CD137-Fc
T1 construct: Bought Fc fusion; also called CD137-Fc
Outline: (§1)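 Biotinylated CD137-Fc, an unrelated Fc-fusion protein or human serum albumin captured 1 h on streptavidin plates blocked in Starting Block T20; diluted bacterial lysate applied 1 h. Bound binders detected with HRP-conjugated anti-Centyrin antibody (PAB25) for 1 h, then POD substrate read-out.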

[2] = molecular target: unrelated Fc-fused recombinant protein; experiment: ELISA, negative control Fc protein
[3] = molecular target: extracellular domain of human CD137 on the surface of CHO-K1 cells (human, UniProt Q07011 24-186); experiment: flow cytometry on CHO-K1 cells with human CD137 ECD
Protocol: Cell surface binding was analyzed via flow cytometry. Cenyrins were prepared at a maximal concentration of 500 nM in the presence of 125 nM anti His-mIgG1 antibody and then serially diluted in PBS/1% FCS buffer. Samples were then applied to approx 100 000 CHO-Kl cells expressing the extracellular domain of human CD137 on their surface. Unbound Centyrin/Antibody complexes were washed away and bound FN3 domains were detected by the addition of goat anti mouse-FITC labeled antibody. Samples were then aquired by flow cytometry. Subsequently, Mean flurescence intensity was plotted against the log Centyrin concentration and EC50 values were calculated by nonlinear regression using GraphPad Prism.

human serum albumin = molecular target: T2, human serum albumin (human, UniProt P02768 25-609); experiment: ELISA, negative control HSA
T2 construct: Negative control of the ELISA; also called HSA
Outline: as §1

[4] = molecular target: human serum albumin (human) (UniProt P02768); experiment: ELISA, negative control HSA
Chain of human serum albumin (human) (P02768 25-609 limits assumed): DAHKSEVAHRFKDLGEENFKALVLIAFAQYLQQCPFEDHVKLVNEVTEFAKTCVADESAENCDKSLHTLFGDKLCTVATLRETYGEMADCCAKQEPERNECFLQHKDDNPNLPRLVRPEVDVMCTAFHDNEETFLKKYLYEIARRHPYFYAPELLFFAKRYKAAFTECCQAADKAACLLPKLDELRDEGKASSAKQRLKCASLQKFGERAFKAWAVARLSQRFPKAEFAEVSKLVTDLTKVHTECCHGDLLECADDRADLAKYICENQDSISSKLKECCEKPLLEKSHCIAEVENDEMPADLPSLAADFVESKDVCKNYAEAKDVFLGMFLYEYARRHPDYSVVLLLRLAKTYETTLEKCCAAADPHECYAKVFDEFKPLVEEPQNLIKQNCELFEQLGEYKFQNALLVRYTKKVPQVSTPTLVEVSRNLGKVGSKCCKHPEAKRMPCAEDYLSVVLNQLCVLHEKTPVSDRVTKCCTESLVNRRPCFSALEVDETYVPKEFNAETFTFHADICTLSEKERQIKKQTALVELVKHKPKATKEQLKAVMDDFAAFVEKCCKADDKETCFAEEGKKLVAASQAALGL

T2 sequence (P02768 25-609 limits assumed): as above

B1: ISOP193ER9P1H2 (designed binder, not shown: small tags and cut ends)
chain: LPAPKNLVVSRVTEDSARLSWTAPDAAFDSFRISYLEDVYYGEAIVLTVPGSERSYDLTGLKPGTEYHVGIHGVKGGIDSFPLSAIFTT
ELISA CD137 (RLU) [1]: 5.18e+06 RLU
ELISA Fc Control (RLU) [2]: 1360 RLU
EC50 [3]: 27.5 nM
ELISA HSA (RLU) (human serum albumin): 560 RLU

B2: ISOP193GR9P1A7 (designed binder, not shown: small tags and cut ends)
chain: LPAPKNLVVSRVTEDSARLSWTAPDAAFDSFAIFYHEFANPGEAIDLPVPGSERSYDLTGLKPGTEYDVRIYGVKGGTASIPLDAEFTT
ELISA CD137 (RLU) [1]: 2.15e+06 RLU
ELISA Fc Control (RLU) [2]: 1040 RLU
EC50 [3]: 606 nM
ELISA HSA (RLU) (human serum albumin): 480 RLU

B3: ISOP193ER9P1A8 (designed binder, not shown: small tags and cut ends)
chain: LPAPKNLVVSRVTEDSARLSWTAPDAAFDSLDIYYFEHPVGGEAIVLTVPGSERSYDLTGLKPGTEYLVTIYGVKGGYLSMPLSAIFTT
ELISA CD137 (RLU) [1]: 1.43e+07 RLU
ELISA Fc Control (RLU) [2]: 1440 RLU
EC50 [3]: 17 nM
ELISA HSA (RLU) (human serum albumin): 400 RLU

B4: ISOP193HR9P1C8 (designed binder, not shown: small tags and cut ends)
chain: LPAPKNLVVSRVTEDSARLSWTAPDAAFDSFEIYYFELRLGGEAIVLTVPGSERSYDLTGLKPGTEYLVTIYGVKGGGYSTPLSAIFTT
ELISA CD137 (RLU) [1]: 1.82e+07 RLU
ELISA Fc Control (RLU) [2]: 1360 RLU
EC50 [3]: 3.27 nM
ELISA HSA (RLU) (human serum albumin): 560 RLU

B5: ISOP193ER9P1E8 (designed binder, not shown: small tags and cut ends)
chain: LPAPKNLVVSRVTEDSARLSWTAPDAAFDSFDIYYFEHPVGGEAIVLTVPGSERSYDLTGLKPGTEYLVTIYGVKGGELSKPLSAIFTT
ELISA CD137 (RLU) [1]: 1.64e+07 RLU
ELISA Fc Control (RLU) [2]: 880 RLU
EC50 [3]: 17.7 nM
ELISA HSA (RLU) (human serum albumin): 480 RLU

B6: ISOP193FR9P1G4 (designed binder, not shown: small tags and cut ends)
chain: LPAPKNLVVSRVTEDSARLSWTAPDAAFDSFEIYYFENELGGEAIVLTVPGSERSYDLTGLKPGTEYLVTIYGVKGGDWSDPLSAIFTT
ELISA CD137 (RLU) [1]: 1.4e+07 RLU
ELISA Fc Control (RLU) [2]: 1840 RLU
EC50 [3]: 26.9 nM
ELISA HSA (RLU) (human serum albumin): 640 RLU

B7: ISOP193FR9P1G9 (designed binder, not shown: small tags and cut ends)
chain: LPAPKNLFVSRVTEDSARLSWTAPDAAFDSFQIYYREQWWDGEAIVLTVPGSERSYDLTGLKPGTEYLVTIYGVKGCDWSDPLSAIFTT
ELISA CD137 (RLU) [1]: 1.28e+07 RLU
ELISA Fc Control (RLU) [2]: 33600 RLU
ELISA HSA (RLU) [4]: 6800 RLU

B8: ISOP193FR9P1D5 (designed binder, not shown: small tags and cut ends)
chain: LPAPKNLVVSRVTEDSARLSWTAPDAAFDSFYIRYIEDVDFGEAIVLTVPGSERSYDLTGLKPGTEYLVTIYGVKGCDWSDPLSAIFTT
ELISA CD137 (RLU) [1]: 6.05e+06 RLU
ELISA Fc Control (RLU) [2]: 51700 RLU
ELISA HSA (RLU) [4]: 10800 RLU

B9: ISOP193FR9P1H9 (designed binder, not shown: small tags and cut ends)
chain: LPAPKNLVVSRVTEDSARLSWTAPDAAFDSFEIYYDELRNPGEAIVLTVPGSERSYDLTGLKPGTEYAVTIYGVKGGRYSPPLSAIFTT
ELISA CD137 (RLU) [1]: 2.42e+06 RLU
ELISA Fc Control (RLU) [2]: 2000 RLU
EC50 [3]: 72.8 nM
ELISA HSA (RLU) (human serum albumin): 800 RLU

B10: ISOP193ER9P1H11 (designed binder, not shown: small tags and cut ends)
chain: LPAPKNLVVSRVTEDSARLSWTAPDAAFDSFDIYYFEHPVGGEAIVLTVPGSERSYDLTGLKPGTEYLVAIYGVKGGVFSHPLSAIFTT
ELISA CD137 (RLU) [1]: 2.08e+06 RLU
ELISA Fc Control (RLU) [2]: 1360 RLU
EC50 [3]: 184 nM
ELISA HSA (RLU) (human serum albumin): 640 RLU

B11: ISOP193ER9P1C8 (designed binder, not shown: small tags and cut ends)
chain: LPAPKNLVVSRVTEDSARLSWTAPDAAFDSFDIYYFEHPVGGEAIVLTVPGSERSYDLTGLKPGTEYLVTIYGVKGGTYSLPLSAIFTT
ELISA CD137 (RLU) [1]: 1.67e+07 RLU
ELISA Fc Control (RLU) [2]: 1040 RLU
EC50 [3]: 12.4 nM
ELISA HSA (RLU) (human serum albumin): 400 RLU

B12: ISOP193FR9P1F8 (designed binder, not shown: small tags and cut ends)
chain: LPAPKNLVVSRVTEDSARLSWTAPDAAFDSFDINYFENELGGEAIVLTVPGSERSYDLTGLKPGTEYLVTIYGVKGCDWSDPLSAIFTT
ELISA CD137 (RLU) [1]: 8.57e+06 RLU
ELISA Fc Control (RLU) [2]: 25700 RLU
ELISA HSA (RLU) [4]: 5040 RLU

B13: ISOP193FR9P1C9 (designed binder, not shown: small tags and cut ends)
chain: LPAPKNLVVSRVTEDSARLSWTAPDAAFDSFQIYYFEWVVGGEAIVLTVPGSERSYDLTGLKPGTEYLVTIYGVKGCDWSDPLSAIFTT
ELISA CD137 (RLU) [1]: 1.23e+07 RLU
ELISA Fc Control (RLU) [2]: 21000 RLU
ELISA HSA (RLU) [4]: 4000 RLU

B14: ISOP193FR9P1C1 (designed binder, not shown: small tags and cut ends)
chain: LPAPKNLVVSRVTEDSARLSWTAPDAAFDSFEIYYFENENGGEAIVLTVPGSERSYDLTGLKPGTEYLVTIYGVKGCDWSDPLSAIFTT
ELISA CD137 (RLU) [1]: 1.41e+07 RLU
ELISA Fc Control (RLU) [2]: 36800 RLU
ELISA HSA (RLU) [4]: 8160 RLU

B15: ISOP193FR9P1D7 (designed binder, not shown: small tags and cut ends)
chain: LPAPKNLVVSRVTEDSARLSWTAPDAAFDSFEIYYAEYFKNGEAIVLTVPGSERSYDLTGLKPGTEYLVTIYGVKGCDWSDPLSAISTT
ELISA CD137 (RLU) [1]: 2.2e+06 RLU
ELISA Fc Control (RLU) [2]: 15000 RLU
ELISA HSA (RLU) [4]: 2640 RLU

B16: ISOP193FR9P1E10 (designed binder, not shown: small tags and cut ends)
chain: LPAPKNLVVSRVTEDSARLSWTTPDAAFDSFHIHYLEGEWGGEAIVLTVPGSERSYDLTGLKPGTEYLVTIYGVKGCDWSDPLSAIFTT
ELISA CD137 (RLU) [1]: 2.05e+06 RLU
ELISA Fc Control (RLU) [2]: 133000 RLU
ELISA HSA (RLU) [4]: 31000 RLU

B17: ISOP193FR9P1G7 (designed binder, not shown: small tags and cut ends)
chain: LPAPKNLVVSRVTEDSARLSWTAPDAAFDSFHIHYLEGEWGGEAIVLTVPGSERSYDLTGLKPGTEYLVTIYGVKGCDWSDPLSAIFTT
ELISA CD137 (RLU) [1]: 5.5e+06 RLU
ELISA Fc Control (RLU) [2]: 42300 RLU
ELISA HSA (RLU) [4]: 11000 RLU

B18: ISOP193FR9P1G8 (designed binder, not shown: small tags and cut ends)
chain: LPAPKNLVVSRVTEDSARLSWTAPDAAFDSFEIYYFENELGGEAIVLTVPGSERSYDLTGLKPGTEYLVTIYGVKGCDWSDPLSAIFTT
ELISA CD137 (RLU) [1]: 1.45e+07 RLU
ELISA Fc Control (RLU) [2]: 25100 RLU
ELISA HSA (RLU) [4]: 5040 RLU

B19: ISOP193FR9P1A5 (designed binder, not shown: small tags and cut ends)
chain: LPAPKNLVVSRVTEDSARLSWTAPDAAFDSFEIYYIEPIAPGEAIVLTVPGSERSYDLTGLKPGTEYWVTIYGVKGCDWSDPLSAIFTT
ELISA CD137 (RLU) [1]: 9.07e+06 RLU
ELISA Fc Control (RLU) [2]: 95100 RLU
ELISA HSA (RLU) [4]: 26200 RLU

B20: ISOP193ER9P1F7 (designed binder, not shown: small tags and cut ends)
chain: LPAPKNLVVSRVTEDSAHLSWTAPDAAFDSFDIYYFEHPVGGEAIVLTVPGSERSYDLTGLKPGTEYLVTIYGVKGGYLSMPLSAIFTT
ELISA CD137 (RLU) [1]: 1.51e+07 RLU
ELISA Fc Control (RLU) [2]: 1200 RLU
EC50 [3]: 25 nM
ELISA HSA (RLU) (human serum albumin): 480 RLU

B21: ISOP193FR9P1C5 (designed binder, not shown: small tags and cut ends)
chain: LPAPKNLVVSRVTEDSARLSWTAPDAAFDSFHIYYLEQYSRGEAIVLTVPGSERSYDLTGLKPGTEYLVTIYGVKGCDWSDPLSAIFTT
ELISA CD137 (RLU) [1]: 8.66e+06 RLU
ELISA Fc Control (RLU) [2]: 79300 RLU
ELISA HSA (RLU) [4]: 19200 RLU

B22: ISOP193AR9P1F9 (designed binder, not shown: small tags and cut ends)
chain: LPAPKNLVVSRVTEDSARLSWPLFASDLNIFDSFLIQYQESEKVGEAIVLTVPGSERSYDLTGLKPGTEYTVSIYGVGRHYTVYDSNPLSAIFTT
ELISA CD137 (RLU) [1]: 4.71e+06 RLU
ELISA Fc Control (RLU) [2]: 1600 RLU
EC50 [3]: 218 nM
ELISA HSA (RLU) (human serum albumin): 560 RLU

B23: ISOP193BR9P1B10 (designed binder, not shown: small tags and cut ends)
chain: LPAPKNLVVSRVTEDSARLSWAWNRHDFDSFLIQYQESEKVGEAIVLTVPGSERSYDLTGLKPGTEYTVSIYGVHWTVLRPFIDSNPLSAIFTT
ELISA CD137 (RLU) [1]: 9.73e+06 RLU
ELISA Fc Control (RLU) [2]: 2640 RLU
EC50 [3]: 134 nM
ELISA HSA (RLU) (human serum albumin): 1200 RLU

B24: ISOP193AR9P1B4 (designed binder, not shown: small tags and cut ends)
chain: LPAPKNLVVSRVTEDSARLSWRDLQYHTFDSFLIQYQESEKVGEAIVLTVPGSERSYDLTGLKPGTEYTVSIYGVGRHYTVYDSNPLSAIFTT
ELISA CD137 (RLU) [1]: 5.74e+06 RLU
ELISA Fc Control (RLU) [2]: 960 RLU
EC50 [3]: 13.9 nM
ELISA HSA (RLU) (human serum albumin): 480 RLU

B25: ISOP193ER9P1A11 (designed binder, not shown: small tags and cut ends)
chain: LPAPKNLVVSRVTEDSARLSWTAPDAAFDSFAIQYQEYVAHGEAIVLTVPGSERSYDLTGLKPGTEYHVRISGVKGGGVSWPLSAIFTT
ELISA CD137 (RLU) [1]: 1.28e+07 RLU
ELISA Fc Control (RLU) [2]: 1200 RLU
EC50 [3]: 10.6 nM
ELISA HSA (RLU) (human serum albumin): 640 RLU

B26: ISOP193ER9P1E4 (designed binder, not shown: small tags and cut ends)
chain: LPAPKNLVVSRVTEDSARLSWTAPDAAFDSFAIIYQEYVKSGEAIVLTVPGSERSYDLTGLKPGTEYHVRIGGVKGGLLSLPLSAIFTT
ELISA CD137 (RLU) [1]: 1.26e+07 RLU
ELISA Fc Control (RLU) [2]: 1680 RLU
EC50 [3]: 279 nM
ELISA HSA (RLU) (human serum albumin): 480 RLU

B27: ISOP193ER9P1B5 (designed binder, not shown: small tags and cut ends)
chain: LPAPKNLVVSRVTEDSARLSWTAPDAAFDSFAIQYQEYVAHGEAIVLTVPGSERSYDLTGLKPGTEYHVRISGVKGGGVSWPLSAIVTT
ELISA CD137 (RLU) [1]: 1.27e+07 RLU
ELISA Fc Control (RLU) [2]: 1200 RLU
EC50 [3]: 7.34 nM
ELISA HSA (RLU) (human serum albumin): 400 RLU
